{
  "source": "patent US20150110794A1",
  "about": "(CELL SIGNALING TECHNOLOGY, published 2015)",
  "binders": {"B1": {"name": "C15 (antibody, V domains shown)", "VH": "EMQLLESGGGLVQPGGSLRVSCAASGFTFSSHAMSWVRQAPGKGLEWVSSISRSGDNTFYADSVKGRFTISRDNIKSTVYLQMNSLRAEDTAVYFCASRYTEGDSVWYFDVWGRGTLVTVSS", "VL": "EVVLTQSPATLSVSAGDRATLSCRASQSVSRDLAWYQQKPGQAPRLLIYGASTRATDIPVRFSGSGSGTEFSLTISSLQSEDFAVYYCHQYKHWPRTFGQGTKVEIKR", "notes": "Human IgG, transiently expressed in HEK293"}, "B2": {"name": "C12 (antibody, V domains shown)", "VH": "QVQLQESGPGLVKPLETLSLTCTVSGGSIRGGDYWWTWVRQPPGKGLEWLGYIYRTGSTYYNPSLKSRLTISLDTSKNHFSLKLASATAADTAVYYCARDPGDDSGGNSGLDYWGQGVLVSVSS", "VL": "QSMLTQPPSVSAAPGQKVIISCSGSSSNIGNNFVNWYQKFPGTAPKLLIYDNDKRPSGIPDRFSGSKSGTSATLGITGLQTGDEAEYYCGTWDSSLTAGVFGGGTTLTVLG", "notes": "as for B1"}, "B3": {"name": "C11 (antibody, V domains shown)", "VH": "EVQLLESGGGLIQPGGSLRLSCVASGFTFTRHAINWVRQAPGKGLEWVSAISGSGSSTYYADSVKGRFTISRDNAKNTLYLQMNRLRVEDTAVYYCAKDKDYGMVAATPDAFDIWGQGTMVTVSS", "VL": "QSVLTQPPSVSAAPGQKVTISCSGSRSNIAKNYVYWYQQLPGTAPKLLIYDTNKRPSGIPDRFSGSKSGTSATLAITGLQTGDEADYYCGTWDSSLKTAIFFGGGTTVTVLG", "notes": "as for B1"}, "B4": {"name": "C6 (antibody, V domains shown)", "VH": "QVQLQESGPGLVKPLETLSLTCTVSGGSISSGSFYWTWIRQHPGKGLEWIGYIHSSGTTYYNPSLKSRLNISRDTSKNQFTLKLSSVTAADTAVYYCAKEIIQWPRRWFDPWGQGTLVTVSS", "VL": "not shown", "notes": "as for B1"}, "B5": {"name": "C8 (antibody, V domains shown)", "VH": "QVQLQESGPGLVKPLETLSLTCTVSGGSISSGSFYWTWIRQHPGKGLEWIGYIHSSGTTYYNPSLKSRLNISRDTSKNQFTLKLSSVTAADTAVYYCAKEIIQWPRRWFDPWGQGTLVTVSS", "VL": "QSVLTQPPSVSAAPGQKVTISCSGSRSNIGKNYVYWYQQLPGTAPKLLIYDNNKRPSGIPDRFSGSKSGTSATLAITGLQTGDEADYYCGTWDSSLKTGIFFGGGTKLTVLG", "notes": "as for B1"}, "B6": {"name": "C3 (antibody, V domains shown)", "VH": "QVQLQESGPGLVKPLETLSLTCTVSGGSISSGSFYWTWIRQHPGKGLEWIGYIHSSGTTYYNPSLKSRLNISRDTSKNQFTLKLSSVTAADTAVYYCAKEIIQWPRRWFDPWGQGTLVTVSS", "VL": "QSMLTQPPSVSAAPGQKVIISCSGSSSNIGNNYVNWYQQLPGTAPKLLIYDNDKRPSGIPDRFSGSKSGTSATLGITGLQTGDEADYYCGTWDSTLTAGVFGGGTKLTVLG", "notes": "as for B1"}, "B7": {"name": "C10 (antibody, V domains shown)", "VH": "QVQLQESGPGLVKPLETLSLTCTVSGGSISSGSFYWTWIRQHPGKGLEWIGYIHSSGTTYYNPSLKSRLNISRDTSKNQFTLKLSSVTAADTAVYYCAKEIIQWPRRWFDPWGQGTLVTVSS", "VL": "QSVLTQPPSASGTPGQRVTISCSGSSSNIGSNYIDWYQQLPGTGPQLLTYRNNQRPSGVPDRFSGSKSGTSASLAISGLRSEDEADYYCASWDDSLSSPVFGGGTKLTVLG", "notes": "as for B1"}, "B8": {"name": "C9 (antibody, V domains shown)", "VH": "QVQLQESGPGLVKPLETLSLTCTVSGGSISSGSFYWTWIRQHPGKGLEWIGYIHSSGTTYYNPSLKSRLNISRDTSKNQFTLKLSSVTAADTAVYYCAKEIIQWPRRWFDPWGQGTLVTVSS", "VL": "QSVLTQPPSVSAAPGQKVTISCSGSRSNIAKNYVYWYQQLPGTAPKLLIYDTNKRPSGIPDRFSGSKSGTSATLAITGLQTGDEADYYCGTWDSSLKTAIFFGGGTTVTVLG", "notes": "as for B1"}, "B9": {"name": "C5 (antibody, V domains shown)", "VH": "QVQLQESGPGLVKPLETLSLTCTVSGGSISSGSFYWTWIRQHPGKGLEWIGYIHSSGTTYYNPSLKSRLNISRDTSKNQFTLKLSSVTAADTAVYYCAKEIIQWPRRWFDPWGQGTLVTVSS", "VL": "QSMLTQPPSVSAAPGQKVIISCSGSSSNIGNNFVNWYQKFPGTAPKLLIYDNDKRPSGIPDRFSGSKSGTSATLGITGLQTGDEAEYYCGTWDSSLTAGVFGGGTTLTVLG", "notes": "as for B1"}, "B10": {"name": "C7 (antibody, V domains shown)", "VH": "QVQLQESGPGLVKPLETLSLTCTVSGGSISSGSFYWTWIRQHPGKGLEWIGYIHSSGTTYYNPSLKSRLNISRDTSKNQFTLKLSSVTAADTAVYYCAKEIIQWPRRWFDPWGQGTLVTVSS", "VL": "not shown", "notes": "as for B1"}, "B11": {"name": "C4 (antibody, V domains shown)", "VH": "QVQLQESGPGLVKPLETLSLTCTVSGGSISSGSFYWTWIRQHPGKGLEWIGYIHSSGTTYYNPSLKSRLNISRDTSKNQFTLKLSSVTAADTAVYYCAKEIIQWPRRWFDPWGQGTLVTVSS", "VL": "QSVLTQPPSVSAAPGQKVIISCSGSGSNIGSHYVNWYQQLPGAAPKLLIYDNDKRPSGIPDRFSGSKSGTSATLAITGLQTGDEADYHCATWDGTLTAGVFGGGTKLTVLG", "notes": "as for B1"}},
  "key": {"[1]": {"biological_target": "CMV AD169 envelope glycoprotein B (gB) (human cytomegalovirus strain AD169, UniProt P06473 32-906)", "assay": "cell-based or functional assay"}, "[2]": {"biological_target": "T1, AD4 polypeptide (cloned AD4 fragment of CMV AD169 envelope glycoprotein B) (human cytomegalovirus strain AD169, UniProt P06473 112-438)", "T1 construct": "also called antigenic domain 4", "assay": "SPR (Biacore T200), antibody captured on anti-human IgG CM5 chip, AD4 polypeptide as analyte, 1:1 model"}},
  "data": [
    {"binder": "B1", "values": [
      {"measurement": "CMV Neutr. IC50", "setting": "[1]", "result": "< 0.3", "unit": "mg/L"},
      {"measurement": "Kd", "setting": "[2]", "result": 6.44, "unit": "nM"},
      {"measurement": "koff", "setting": "[2]", "result": 0.00234, "unit": "s⁻¹"},
      {"measurement": "kon", "setting": "[2]", "result": 363000, "unit": "M⁻¹ s⁻¹"}
    ]},
    {"binder": "B2", "values": [
      {"measurement": "CMV Neutr. IC50", "setting": "[1]", "result": "> 50", "unit": "mg/L"},
      {"measurement": "Kd", "setting": "[2]", "result": 3.27, "unit": "nM"},
      {"measurement": "koff", "setting": "[2]", "result": 0.00369, "unit": "s⁻¹"},
      {"measurement": "kon", "setting": "[2]", "result": "1.13e+06", "unit": "M⁻¹ s⁻¹"}
    ]},
    {"binder": "B3", "values": [
      {"measurement": "CMV Neutr. IC50", "setting": "[1]", "result": "> 50", "unit": "mg/L"},
      {"measurement": "Kd", "setting": "[2]", "result": 5.67, "unit": "nM"},
      {"measurement": "koff", "setting": "[2]", "result": 0.00109, "unit": "s⁻¹"},
      {"measurement": "kon", "setting": "[2]", "result": 192000, "unit": "M⁻¹ s⁻¹"}
    ]},
    {"binder": "B4", "values": [
      {"measurement": "CMV Neutr. IC50", "setting": "[1]", "result": "< 2", "unit": "mg/L"},
      {"measurement": "Kd", "setting": "[2]", "result": 2.5, "unit": "nM"},
      {"measurement": "koff", "setting": "[2]", "result": 0.00138, "unit": "s⁻¹"},
      {"measurement": "kon", "setting": "[2]", "result": 554000, "unit": "M⁻¹ s⁻¹"}
    ]},
    {"binder": "B5", "values": [
      {"measurement": "CMV Neutr. IC50", "setting": "[1]", "result": "> 50", "unit": "mg/L"},
      {"measurement": "Kd", "setting": "[2]", "result": 4.49, "unit": "nM"},
      {"measurement": "koff", "setting": "[2]", "result": 0.00186, "unit": "s⁻¹"},
      {"measurement": "kon", "setting": "[2]", "result": 414000, "unit": "M⁻¹ s⁻¹"}
    ]},
    {"binder": "B6", "values": [
      {"measurement": "CMV Neutr. IC50", "setting": "[1]", "result": "< 0.07", "unit": "mg/L"},
      {"measurement": "Kd", "setting": "[2]", "result": 0.549, "unit": "nM"},
      {"measurement": "koff", "setting": "[2]", "result": 0.00068, "unit": "s⁻¹"},
      {"measurement": "kon", "setting": "[2]", "result": "1.24e+06", "unit": "M⁻¹ s⁻¹"}
    ]},
    {"binder": "B7", "values": [
      {"measurement": "CMV Neutr. IC50", "setting": "[1]", "result": "> 50", "unit": "mg/L"},
      {"measurement": "Kd", "setting": "[2]", "result": 3.97, "unit": "nM"},
      {"measurement": "koff", "setting": "[2]", "result": 0.00197, "unit": "s⁻¹"},
      {"measurement": "kon", "setting": "[2]", "result": 496000, "unit": "M⁻¹ s⁻¹"}
    ]},
    {"binder": "B8", "values": [
      {"measurement": "CMV Neutr. IC50", "setting": "[1]", "result": "> 50", "unit": "mg/L"},
      {"measurement": "Kd", "setting": "[2]", "result": 3.95, "unit": "nM"},
      {"measurement": "koff", "setting": "[2]", "result": 0.00238, "unit": "s⁻¹"},
      {"measurement": "kon", "setting": "[2]", "result": 602000, "unit": "M⁻¹ s⁻¹"}
    ]},
    {"binder": "B9", "values": [
      {"measurement": "CMV Neutr. IC50", "setting": "[1]", "result": "< 6", "unit": "mg/L"},
      {"measurement": "Kd", "setting": "[2]", "result": 0.278, "unit": "nM"},
      {"measurement": "koff", "setting": "[2]", "result": 0.000201, "unit": "s⁻¹"},
      {"measurement": "kon", "setting": "[2]", "result": 721000, "unit": "M⁻¹ s⁻¹"}
    ]},
    {"binder": "B10", "values": [
      {"measurement": "CMV Neutr. IC50", "setting": "[1]", "result": "> 50", "unit": "mg/L"},
      {"measurement": "Kd", "setting": "[2]", "result": 7.76, "unit": "nM"},
      {"measurement": "koff", "setting": "[2]", "result": 0.00604, "unit": "s⁻¹"},
      {"measurement": "kon", "setting": "[2]", "result": 779000, "unit": "M⁻¹ s⁻¹"}
    ]},
    {"binder": "B11", "values": [
      {"measurement": "CMV Neutr. IC50", "setting": "[1]", "result": "< 0.04", "unit": "mg/L"},
      {"measurement": "Kd", "setting": "[2]", "result": 0.695, "unit": "nM"},
      {"measurement": "koff", "setting": "[2]", "result": 0.00063, "unit": "s⁻¹"},
      {"measurement": "kon", "setting": "[2]", "result": 908000, "unit": "M⁻¹ s⁻¹"}
    ]}
  ]
}
